The nature of the series: yeast display, Sf9 membrane polyspecificity reagent, FACS + sequencing; frameworks hold sequencing errors. Put shortly: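 Galactose induction of a Saccharomyces cerevisiae BJ5465 synthetic nanobody display library ran 36–48 hours. The cells were then stained for 1 hour at 4 °C with 10% biotinylated, detergent-solubilized Sf9 membrane reagent, pulled down on streptavidin microbeads and FACS-sorted into low and high (top ~1%) gates on expression and reagent-binding fluorescence. Labels for polyreactivity follow the gate of origin.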
Turning to “QVQLVESGGGLVQAGGSLRLSCAASGGTFRSYAMGWFRQAPGKERELVASISSGGTTNYADSVKGRFTISRDNAKNTVYLQLTSLKPEDTAVYYCAKSYPGRAPGYYSWGQGTQVTVSS”, the “polyreactivity (PSR sort gate)” value is “low polyreactivity”.
In the case of “QVQLVESGGGLVQAGGSLRLSCAAYGITFYWYAMGRYRQAPGKEWELVAGISQSGSRTYYADSVKGRFTISRDNAKNTVYLQMNSLKPEDTAVYYCAARVRWSPTRTFEYWGQGTQVTVSS” it was “high polyreactivity”; in that of “QVQLVESGGCLVQAGGSLRLTCAASGFTFVYNAMGWYRQDPGKERELVARISVSGGSTYYADSVKGRFTISRDNAKNTVYLQMNSLKPEDTSVYYCAAELSAPQPDYQLKVDYYYWGQGTQVTVSS”, “low polyreactivity”; in that of “QVQLVESGGALVQAGGSLRLSCAASGSIFRYNAMGWYRQAPGKEREFVAIISYSGVRTYYADSVKGRFTISRDNAKNTVYLQMNSLKPADTAVYYCAADFKQKGHRTRTTYWGQGTQVTVSS”, “high polyreactivity”.
The value for “QDQHVESGGGLVQAGGRLRLSCAASGRIFSFYVMGWYIQAPGKERELVASISLSGGSTYYADSVKGRFTFSRDNAKNTVYLQMNSLKPEDTEVYYCNAVLYARQRERWARYDYWGQGTQVTVSS” was “high polyreactivity”; that for “QVQLVESGGGLVQAGGSLRLSCAASGRILRYNAMGWYRQAPGKERELVAAITRTGGITRYADSVKGRFTISRDNAKNTVSLQMNSLNPQDTAVYYCNTYPRYGYVLSWPQGYDYWGQGTQVTVSS” was “low polyreactivity”.
In the case of “QVQLVESVGGLVQAGGSLRLSCAASGSTFYPNAMGLYRQAPGKESELVAAITSGGSTYYADSVKGRFTISRDNAKNTVYLQMNTLKPEDTAVYYCAAQRRYHLDTTIGPGNYYYWGQGTQVTVSS” it was “low polyreactivity”; in that of “QVQLEESGGGLVQAGGSLRLICAASGRNFGYYPMGWYRQAPGKERELVAAISGSGGTTYYADSVKGRFTISRDIAKNTVYLQMISLKPEDTAVYYCNAGFGYYWHRGFFQYDYWGQGTQVTVSS”, “high polyreactivity”.
Regarding “QVQLVESGGGLVQAGGSLRLSCAASGRTTLLYAMGWYRQAPGKERELVATIRYTGGSTYADSVKGHFTISRDNAKNTVYLQMNILKPEDTAVYYCNARSYQYDGGHRYWGQGTQVTVSL”, the “polyreactivity (PSR sort gate)” value is reported as “high polyreactivity”.
Take “QVQLVESGGGLVQAGGSLRLSCAASGRTFYLYAMGWYRQAPGKERELVAAITKSGGSTYYADSVKGRFTISRDNAKNTVYLQMNSLKPEDTAVYYCATDGRWRLAGAFTGKRRTYDYWGQGTQVTVSS”: the “polyreactivity (PSR sort gate)” value is listed as “low polyreactivity”.
The value for “QVQLVESGGGLVQAGGSLRLSCAASGIIFDLNAMGWYRQAPGKERELVAAISSGGGTYYADSVKGRFTISRDNAKNTVYLQMNSLKPEDTAVYYCNRVTRWTYNYWGQGTLVTVSS” was “high polyreactivity”; that for “QVQLVESGGGLVQAGGSLRLSCAASGIIFIGNAMGWYRQAPGKERELVAAITYTGGSTYYADSVKGRFTISRDNAKNTVYLQMNSLKPEDTAVYYCAVDRTHLEDDYWGQGTQVTVSS” was “low polyreactivity”; that for “QVQLVESGGGLVQAGGSLRLSCAASGRTFIVNAMGWYRQAPGKERELVAAITKGARTYYADSVKGRFTISRDNAKNTVYLQMNSLKPEDSAVYYCAAVSYTQSHAYWGTGYRYGYWGQGTQVTVSS” was “high polyreactivity”.
The value for “QVQLVESGGGLVQAGGSLRLSCAASGSIFCRNAMGWYRQAPGKERELVAAITSGGTTNYADSVKGRFTISRDNAKNSVYLQMNSLKPEDTAVYYCATRASYLRRYDHPHSDVDYWGQGTQVTVSS” was “low polyreactivity”.
As to “QVQLVDSGGGLVQAGGSLRLSCAASGFIFTDYAMGLYRQAPGQEREFVAAIDWSGGNTYYADSVTGRFTISRDNAKNTVYLQMNSLKPEDTAVFYCAASGSAREYVYWGQGTQVTVSS”, the “polyreactivity (PSR sort gate)” value is recorded as “low polyreactivity”.
Regarding “QVQLVESGGGIVQAGGSLRLSCAASGSIFDKNAMGWYRQAPGKERELVAAIDSGDTYYADSVKGRFTISRDNAKNTVYLQMNSLKPEDTAVYYCAADDVQYEYDYWGQGPQVTVSS”, the “polyreactivity (PSR sort gate)” value is given as “low polyreactivity”.
In the case of “QVQLVESGGGLVQAGGSLRLSCAASGIIIVRYAMGWYRQAPGKERELVAAISWSGGRTYYADSVKGRFTISRDNAKNTVYFQINSLKPEDTAVYYCAAAPLYYHRRGYYYWGQGTQVTVSS” it was “high polyreactivity”; in that of “QVQLVESGGGLVQAGGSLRLSCAASGYTFSYYAMGWYRQAPGKERELVAAITSTGSTYYADSVKGRFTISRDNAKNTDYFQMNSLKPEDTEVYYCNVDVATVGPVDYWGQGTQVTVSS”, “low polyreactivity”.
As to “QVQLVESGGGLVQAGGSLRLSCAASGRTFGYYVMGWYRQAPGKERELVAAISQSGGSTYYADSVKGRFTISRDNAKNTVYLQMNSLKPEDTAVYYCAKRGWRTFQGGYWGQGTQVTVSS”, the “polyreactivity (PSR sort gate)” value is on record as “high polyreactivity”.
In the case of “QVQLVEAGGGLVQAGGSLRLSCAASGITLYLYVMGWYRQAPGKEREFVAAIRWSGGSTYYADSVKGRFTISRDNAKNTVYLQMNSLKPEDTAVYYCNAEVYCYYSARRPGYEYWGQGTQVTVSS” it was “low polyreactivity”.
The value for “QVQLVESGGGLVQAGASLRLSCAASGRTFNVYAMGWYRQAPGKERELVASISSGTSTNYADSVKGRFTISRDNAKNTVYLQMNSLKPEDTAVYYCNADFVWNGYSGRIRDYYWGQGTQVTVSS” was “low polyreactivity”; that for “QVQLVESGGGLVQAGGSLRLSCAPSGFIFVSNAMVWYRQEPGKERELFADITSRGDSTYYADSVKGRFTISRDNAKNTVYLQMNSLKPEDTAVYYCAVDQLYFPWSFSWYGYWGQGTQVTVSS” was “low polyreactivity”; that for “QVQLVESGGGLVQAGGSLRLSCAASGLIFGWNAMGWYRQAPGKERELVAAISSGGSTNYADSVKGRFTISRDNAKNTVYLQMNRLKPEDNAVYYCATRNGYSGTYGYWGQGTQVTVSS” was “low polyreactivity”.
In the case of “QVQLVESGGCLVQAGGSLRLSCAASRITFRWYAMGWYRQAPGKDRELVAAISRSGASTYYADSVKGRFTISRDNAKNTVYLQMNSLKPEDTAVYYCAKEKTTYYWATYDYWGQGTQVTVSS” it was “high polyreactivity”.
For “QVQLVESGGGIVQAGGSLRLSCAASGITFPLYVMGWYRQAPGKERELVAAISASGGSTYADSVKGRFTISRDNAKNTVYLQMNSLKPEDTAVYYCNADVYVGYDYDYWGQGTQVTVSS”, the “polyreactivity (PSR sort gate)” value is “low polyreactivity”.
As to “QVQLVESGGGLVQAGGSLRLSCAASGLTFPYYAMGWYRQAPGTERELVAVITTSTGTTYYADSVKGRFTMSRDNAKNTVYLQMNSLKPEDTAVYYCATDTGAYWFSLYDYWGQGTQVTVSS”, the “polyreactivity (PSR sort gate)” value is listed as “low polyreactivity”.
Consider “QVQLGESGGGLVQSGGSLRLSCAASGSIFDWYDKGWYRQAPGKERELVATITRDGSTNYADSVKGRFTISRDNAKNTVYLQMNSLKPEDTAVYYCAAESRRFWYGLFGNEYGYWGQGTQVTVSS”, for which the “polyreactivity (PSR sort gate)” value is on record as “low polyreactivity”.
As to “QVQLVESGGGLVQAGGSLRLSCAASGRTFWKYAMGWYRHAPGKERELVAAITDDDSTDYADSVKGRFTISRDNAKNTVYLQMNSLKPEDTAVYYCNADSSRYYRALEYWGQGTQVTVSS”, the “polyreactivity (PSR sort gate)” value is on record as “low polyreactivity”.
In the case of “QVQLVESGAGLVQAGGSLRLSCAASGSTFSYYTMGWYRHAPGKERELVAAITSGGPTNYADSVKGRFTISRDNAKNTVYLQMNSLKPEDTAVYYCAAALYYGWGYYYWGQGTQVTVSS” it was “low polyreactivity”; in that of “QVQLQVSGGGLVQAGGSLRLSCAACGSNFLTAEMGWYLQAPGKERELVAAIATGTSTNYADSVKGRFTISRDNAKNTVYLQMNSLKREDTALYYCATYHYWGQGTQVTVSS”, “low polyreactivity”.
For “QVQLVESGGGLVQAGGSLRLSCAASGRTLLSPNAMGWYRQAPGKARELVAVISWSDGSTYYADSVKGRFTISRDNANNTVYLQMNSLKPEDTAVYYSAASDPFEASQYKYDYWGQGTQVTVSS”, the “polyreactivity (PSR sort gate)” value is “low polyreactivity”.
On to “QVQLVESGGGLVQAGGILRLSCAASGSTFAYNAMGWYRQEPGKERELFAAISWSGGTTYYADSVKGRFTISRDNAKTTVYLQMNSLKPEDTAVYYCNAVYYPSYQQVRAHDYWGQGTQVTVSS”, for which the “polyreactivity (PSR sort gate)” value is reported as “high polyreactivity”.
For the sequence “QVQLVESGGGLVQAGGSLRLSCAASGRTFYHYAMGLYRQAPGKERELVAALNRVGGTNYADSVKGRFTISRDNAKNTVYLQMNSLKPEDTAVYYCNADIVARSSYSTKYEEFYYWGLGTQVTVSS”, the “polyreactivity (PSR sort gate)” value is on record as “low polyreactivity”.
With “QVHLVESGGGLVQAGGSLRLSCAASGFTFVFYTMGWYRPAPGKERELVAAISHTGDSTYYADSVKGRFTISRDNAKNTVYFQMNSLKPEDTAVYYCATDLYTADPDPSPTYKFEYWGQGTQVTVSS”, the “polyreactivity (PSR sort gate)” value is on record as “low polyreactivity”.
In the case of “QVQLVESGGGLVQAVGSLRLSCAASGRTFARNAMGWYRQAPGKERELVAVITSGTSTYYADSVKGRFTISRDYAKNTVYLQMNSLKPEDTAVYYCAARSPGRAGIYYSWGQGTQVTVSS” it was “high polyreactivity”.
The value for “QVQLVESGGGLVQAGGSLRLICAASGSIFVGNAMGWYRQAPGKERELVAAITSSGGRTYYADSVKGRFTISRDNAKNTVYLQMNSLKPEDTAVYYCNTSRTRRFSLWAYDYWGQGTQVTVSS” was “high polyreactivity”; that for “QVQLVESGGGLVQAGGSLRLSCAASGSIFRHYAMGWYSQAPGKERELVASITLRGGSTYYADSVKGPFTISRDNAKNTVYLQMNSLKPEDTAVYYCAKRAGPEYDYWGQGTQVTVSS” was “low polyreactivity”.
Take “QVQLVESGGGLVQAGGSLRLSCAASGFTFASNAMGWYRQAPGKERELVAGISRTGTTTYYADSVKGRFTISRDNAKNTVYLQMNSLKPEDTAVYYCAKGSNSYLRYHYTYPYDYWGQGTQVTVSS”: the “polyreactivity (PSR sort gate)” value is “high polyreactivity”.
With “QVQLVESGGGLVQAGGSLRLSCAASGRTFRYNTMGWYRQAPGKERELVARITRSGGSTYYADSVKGRFTISRDNAKNTVYLQMNSLKPEDTAVYYCAAVPILVYRWFQSYTGDYDYWGQGTQVTVSS”, the “polyreactivity (PSR sort gate)” value is reported as “low polyreactivity”.
In the case of “QVQLVESGGGLVQAGGSLRLSCAASGRTFEKNAMGWYRQAPGKERELVASITSVGSTDYADSVKGRFTISRDNAKNTVYLQMNSLKPEDTAVYYCAKTLGSQNYDFDYWGQGTQVTVSS” it was “low polyreactivity”.

The values above are taken from the nanobody polyreactivity screen of Harvey et al. (2022).
